Test results taken from US20220002700A1, “COMPUTATIONALLY-OPTIMIZED ACE2 PEPTIDES FOR COMPETITIVE INTERCEPTION OF SARS-CoV-2” (priority 2020, published 2022).

System: viruses pseudotyped with the SARS-CoV-2 S protein
Format: cell-based

B1: 23-mer (A2N)-CHIPΔTPR fusion (protein)
chain: QNKTFLDKFNHEAEDLFYQSSLAMRLNFGDDIPSALRIAKKKRWNSIEERRIHQESELHSYLSRLIAAERERELEECQRNHEGDEDDSHVRAQQACIEAKHDKYMADMDELFSQVDEKRKKRDIPDYLCGKISFELMREPCITPSGITYDRKDIEEHLQRVGHFDPVTRSPLTQEQLIPNLAMKEVIDAFISENGWVEDY
B1 was tested, and the “reduction of the infection rate of the pseudovirus” value was about 60%.
